Source: article PMC11743776, “Isoxazole-based molecules restore NK cell immune surveillance in hepatocarcinogenesis by targeting TM4SF5 and SLAMF7 linkage” (Signal Transduction and Targeted Therapy, 2025)

T1: TM4SF5 (Homo sapiens, UniProt O14894)
T1 construct: Strep-TM4SF5 WT (pulled down from HEK293FT) or HA-TM4SF5 (immunoprecipitated from Huh7KO)
T1 sequence (O14894 1-197): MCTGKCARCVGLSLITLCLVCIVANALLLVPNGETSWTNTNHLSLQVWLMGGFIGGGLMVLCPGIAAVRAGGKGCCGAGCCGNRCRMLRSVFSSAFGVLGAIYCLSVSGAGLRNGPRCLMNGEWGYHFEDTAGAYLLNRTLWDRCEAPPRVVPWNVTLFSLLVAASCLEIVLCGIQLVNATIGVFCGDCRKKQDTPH

B1: SLAMF7: NQ#6 (protein)
parent chain: MAGSPTCLTLIYILWQLTGSAASGPVKELVGSVGGAVTFPLKSKVKQVDSIVWTFNTTPLVTIQPEGGTIIVTQNRNRERVDFPDGGYSLKLSKLKKNDSGIYYVGIYSSSLQQPSTQEYVLHVYEHLSKPKVTMGLQSNKNGTCVTNLTCCMEHGEEDVIYTWKALGQAANESHNGSILPISWRWGESDMTFICVARNPVSRNFSSPILARKLCEGAADDPDSSMVLLCLLLVPLLLSLFVLGLFLWFLKRERQEEYIEEKKRVDICRETPNICPHSGENTEYDTIPHTNRTILKEDPANTVYSTVEIPKKMENPHSLLTMPDTPRLFAYENVI
B2: SLAMF7: NQ#1 (protein)
parent chain: B1 parent chain
B3: SLAMF7: NQ#2456 (protein)
parent chain: B1 parent chain
B4: SLAMF7: NQ#456 (protein)
parent chain: B1 parent chain
B5: SLAMF7: NQ#23456 (protein)
parent chain: B1 parent chain
B6: SLAMF7: NQ#123 (protein)
parent chain: B1 parent chain
B7: SLAMF7: NQ#3 (protein)
parent chain: B1 parent chain
B8: SLAMF7: NQ#1456 (protein)
parent chain: B1 parent chain
B9: SLAMF7: NQ#2 (protein)
parent chain: B1 parent chain
B10: TM4SF5: Gly− (protein)
parent chain: T1 sequence (O14894 1-197)

How the values were obtained:
[1] = molecular target: T1, TM4SF5; test: […]-radioligand binding to pulled-down/immunoprecipitated TM4SF5, blocked by cold ST-5-002; EC50 by titration (about […] or […] for the differently tagged proteins)
[2] = confocal immunofluorescence colocalisation; details: glycan lost; control: FLAG-SLAMF7 WT
[3] = immunoblot of SLAMF7 level with TM4SF5 expression; details: glycan lost; control: WT SLAMF7, TM4SF5 co-expressed
[4] = immunoblot of SLAMF7 in co-transfected SNU761 cells; details: glycan lost; control: Strep-TM4SF5 WT

Molecule	expression_or_secretion [3]	other results
Cc1ccc(C(=O)Nc2ccc(-c3cc(-c4ccc(O)cc4)no3)cc2)cc1 [ST-5-002, N-(4-(3-(4-hydroxyphenyl)isoxazol-5-yl)phenyl)-4-methylbenzamide]	–	EC50 [1]: ~850 nM
B1	–	localisation_or_trafficking [2]: abolishes
B2	no change	–
B3	increases	–
B4	increases	localisation_or_trafficking [2]: abolishes
B5	increases	–
B6	no change	localisation_or_trafficking [2]: no change
B7	no change	–
B8	increases	–
B9	no change	–
B10	–	other: downregulation of SLAMF7 level [4]: abolishes
